Patent US7098310B1, “Heterodimers of retinoid X receptors (RXRS) and other steroid hormone receptors” (Ligand Pharmaceuticals, priority 1991, dated 2006)

T1: retinoid x receptor (RXRα) (human, UniProt P19793 1-462)
T1 construct: mature; In vitro translated full length receptor; 35S-labelled in the column and immunoprecipitation experiments
T1 sequence (looked up): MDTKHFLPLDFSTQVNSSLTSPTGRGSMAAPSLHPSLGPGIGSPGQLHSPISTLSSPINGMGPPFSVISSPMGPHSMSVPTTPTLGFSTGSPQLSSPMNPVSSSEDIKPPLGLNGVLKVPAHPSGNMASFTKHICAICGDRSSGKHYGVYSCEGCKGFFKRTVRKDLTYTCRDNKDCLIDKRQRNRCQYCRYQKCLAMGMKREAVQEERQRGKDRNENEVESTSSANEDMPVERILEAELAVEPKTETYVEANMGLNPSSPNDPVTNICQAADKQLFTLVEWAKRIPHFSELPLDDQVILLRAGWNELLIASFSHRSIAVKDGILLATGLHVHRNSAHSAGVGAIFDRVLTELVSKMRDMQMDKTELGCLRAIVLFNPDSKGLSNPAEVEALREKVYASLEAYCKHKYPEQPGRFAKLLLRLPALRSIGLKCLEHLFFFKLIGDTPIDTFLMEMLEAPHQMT

T2: retinoic acid receptor RARγ (UniProt P13631 1-454, limits assumed)
T2 construct: mature; In vitro translated
T2 sequence (looked up): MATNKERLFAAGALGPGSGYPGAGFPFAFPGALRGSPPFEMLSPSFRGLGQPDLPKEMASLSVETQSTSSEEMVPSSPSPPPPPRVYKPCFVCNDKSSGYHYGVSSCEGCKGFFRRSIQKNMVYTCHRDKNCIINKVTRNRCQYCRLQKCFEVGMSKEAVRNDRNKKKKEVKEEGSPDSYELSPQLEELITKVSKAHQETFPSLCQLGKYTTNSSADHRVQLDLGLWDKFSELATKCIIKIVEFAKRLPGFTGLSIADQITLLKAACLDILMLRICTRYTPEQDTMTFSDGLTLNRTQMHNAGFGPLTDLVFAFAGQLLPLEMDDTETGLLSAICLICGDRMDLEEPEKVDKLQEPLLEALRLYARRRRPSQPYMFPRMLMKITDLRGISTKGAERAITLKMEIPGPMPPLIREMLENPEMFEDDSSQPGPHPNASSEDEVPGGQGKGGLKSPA

T3: thyroid hormone receptor TRβ (human, UniProt P10828 1-461)
T3 construct: mature; In vitro translated; also called TR-B; c-erb-A-B
T3 sequence (looked up): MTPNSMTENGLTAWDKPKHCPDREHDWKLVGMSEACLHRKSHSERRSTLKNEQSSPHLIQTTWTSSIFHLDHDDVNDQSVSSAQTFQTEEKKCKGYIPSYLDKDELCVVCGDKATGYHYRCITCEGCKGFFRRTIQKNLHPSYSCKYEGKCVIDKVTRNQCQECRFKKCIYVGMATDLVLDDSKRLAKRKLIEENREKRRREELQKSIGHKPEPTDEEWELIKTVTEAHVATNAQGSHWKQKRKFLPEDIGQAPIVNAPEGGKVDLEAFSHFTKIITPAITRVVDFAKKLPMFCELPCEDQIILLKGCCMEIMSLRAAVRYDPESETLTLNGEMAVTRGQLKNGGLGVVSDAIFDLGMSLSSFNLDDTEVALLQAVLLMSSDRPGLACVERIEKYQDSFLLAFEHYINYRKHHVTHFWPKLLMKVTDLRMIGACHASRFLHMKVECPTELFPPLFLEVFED

T4: retinoic acid receptor RARβ (UniProt P10826 1-455, limits assumed)
T4 construct: mature; In vitro translated
T4 sequence (looked up): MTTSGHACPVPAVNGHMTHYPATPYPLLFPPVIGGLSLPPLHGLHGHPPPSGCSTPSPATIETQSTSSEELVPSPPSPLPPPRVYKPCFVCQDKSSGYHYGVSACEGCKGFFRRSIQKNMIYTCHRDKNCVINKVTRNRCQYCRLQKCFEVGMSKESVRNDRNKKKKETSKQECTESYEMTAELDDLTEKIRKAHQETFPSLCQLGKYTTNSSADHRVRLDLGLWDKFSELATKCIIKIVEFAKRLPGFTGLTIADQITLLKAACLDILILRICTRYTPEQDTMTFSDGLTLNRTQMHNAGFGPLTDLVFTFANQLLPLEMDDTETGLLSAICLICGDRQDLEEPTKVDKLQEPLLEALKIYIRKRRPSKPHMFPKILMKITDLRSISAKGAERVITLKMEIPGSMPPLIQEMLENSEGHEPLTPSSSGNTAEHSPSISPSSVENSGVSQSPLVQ

T5: retinoic acid receptor RARα (UniProt P10276 1-462, limits assumed)
T5 construct: mature; In vitro translated
T5 sequence (looked up): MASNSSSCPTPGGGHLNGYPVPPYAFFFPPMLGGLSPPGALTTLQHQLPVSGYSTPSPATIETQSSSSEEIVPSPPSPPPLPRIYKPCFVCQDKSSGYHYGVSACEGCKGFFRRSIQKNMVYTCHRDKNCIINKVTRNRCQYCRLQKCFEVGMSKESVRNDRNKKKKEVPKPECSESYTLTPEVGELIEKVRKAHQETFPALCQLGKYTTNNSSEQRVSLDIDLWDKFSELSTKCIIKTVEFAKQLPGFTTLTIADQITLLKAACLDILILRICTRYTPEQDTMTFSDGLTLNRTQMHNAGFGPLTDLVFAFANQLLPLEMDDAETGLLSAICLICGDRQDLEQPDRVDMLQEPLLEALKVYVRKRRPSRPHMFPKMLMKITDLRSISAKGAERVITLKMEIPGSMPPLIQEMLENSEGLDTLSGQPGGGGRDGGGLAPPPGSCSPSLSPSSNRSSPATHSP


Experiments:
[1] = target: T1, retinoid x receptor (RXRα); assay: gel retardation, 32P palindromic TRE, in vitro translated receptors
Procedure: (§1) After incubation at room temperature for 45 minutes, the effect of antibody on slow migrating complexes was analyzed by gel retardation using ^32-labelled palindromic TRE as a probe. As a control, receptor mixtures were also incubated with preimmune serum (NI).
(§2) In vitro translated receptor protein (1 to 5 µl depending on the translation efficiency) was incubated with the ^32P-labeled oligonucleotides in a 20-µl reaction mixture containing 10 mM hepes buffer, pH 7.9, 50 mM KCl, 1 mM DTT, 2.5 mM MgCl, 10% glycerol, and 1 µg of poly(dI-dC) at 25° C. for 20 minutes. In general, relative low receptor concentration was used to obtain the clear effect of heterodimer formation. The reaction mixture was then loaded on a 5% nondenaturing polyacrylamide gel containing 0.5× TBE (1×TBE=0.089 M TRIS-borate, 0.089 M boric acid, and 0.002 M EDTA). […] When antibody was used, 1 µl of the antiserum was incubated with the specific translation products at room temperature for 45 minutes before performing the experiments described above.

[2] = target: T2, retinoic acid receptor RARγ; assay: as above
Procedure: as §1, §2

[3] = target: T3, thyroid hormone receptor TRβ; assay: gel retardation, 32P palindromic TRE (data not shown)
[4] = target: T4, retinoic acid receptor RARβ; assay: as above
[5] = target: T5, retinoic acid receptor RARα; assay: as above

| Binder | binding result [1] | binding result [2] | binding result [3] | further results |
| --- | --- | --- | --- | --- |
| RARγm1 (receptor, UniProt P13631 1-352, looked up, In vitro translated deletion mutant; also called RARγml) MATNKERLFAAGALGPGSGYPGAGFPFAFPGALRGSPPFEMLSPSFRGLGQPDLPKEMASLSVETQSTSSEEMVPSSPSPPPPPRVYKPCFVCNDKSSGYHYGVSSCEGCKGFFRRSIQKNMVYTCHRDKNCIINKVTRNRCQYCRLQKCFEVGMSKEAVRNDRNKKKKEVKEEGSPDSYELSPQLEELITKVSKAHQETFPSLCQLGKYTTNSSADHRVQLDLGLWDKFSELATKCIIKIVEFAKRLPGFTGLSIADQITLLKAACLDILMLRICTRYTPEQDTMTFSDGLTLNRTQMHNAGFGPLTDLVFAFAGQLLPLEMDDTETGLLSAICLICGDRMDLEEPEKVDK | no binding | – | – | – |
| RXRαm6 (receptor, human, UniProt P19793 1-462, looked up, In vitro translated deletion mutant) MDTKHFLPLDFSTQVNSSLTSPTGRGSMGMKREAVQEERQRGKDRNENEVESTSSANEDMPVERILEAELAVEPKTETYVEANMGLNPSSPNDPVTNICQAADKQLFTLVEWAKRIPHFSELPLDDQVILLRAGWNELLIASFSHRSIAVKDGILLATGLHVHRNSAHSAGVGAIFDRVLTELVSKMRDMQMDKTELGCLRAIVLFNPDSKGLSNPAEVEALREKVYASLEAYCKHKYPEQPGRFAKLLLRLPALRSIGLKCLEHLFFFKLIGDTPIDTFLMEMLEAPHQMT | – | no binding | – | – |
| RXRαm4 (receptor, human, UniProt P19793 61-462, looked up, range 61-462; 35S-labelled in the column experiment; also called mutant RXRαm4) MGPPFSVISSPMGPHSMSVPTTPTLGFSTGSPQLSSPMNPVSSSEDIKPPLGLNGVLKVPAHPSGNMASFTKHICAICGDRSSGKHYGVYSCEGCKGFFKRTVRKDLTYTCRDNKDCLIDKRQRNRCQYCRYQKCLAMGMKREAVQEERQRGKDRNENEVESTSSANEDMPVERILEAELAVEPKTETYVEANMGLNPSSPNDPVTNICQAADKQLFTLVEWAKRIPHFSELPLDDQVILLRAGWNELLIASFSHRSIAVKDGILLATGLHVHRNSAHSAGVGAIFDRVLTELVSKMRDMQMDKTELGCLRAIVLFNPDSKGLSNPAEVEALREKVYASLEAYCKHKYPEQPGRFAKLLLRLPALRSIGLKCLEHLFFFKLIGDTPIDTFLMEMLEAPHQMT | – | – | binds | – |
| RXRαm3 (receptor, human, UniProt P19793 28-462, looked up, range 28-C-terminus) MAAPSLHPSLGPGIGSPGQLHSPISTLSSPINGMGPPFSVISSPMGPHSMSVPTTPTLGFSTGSPQLSSPMNPVSSSEDIKPPLGLNGVLKVPAHPSGNMASFTKHICAICGDRSSGKHYGVYSCEGCKGFFKRTVRKDLTYTCRDNKDCLIDKRQRNRCQYCRYQKCLAMGMKREAVQEERQRGKDRNENEVESTSSANEDMPVERILEAELAVEPKTETYVEANMGLNPSSPNDPVTNICQAADKQLFTLVEWAKRIPHFSELPLDDQVILLRAGWNELLIASFSHRSIAVKDGILLATGLHVHRNSAHSAGVGAIFDRVLTELVSKMRDMQMDKTELGCLRAIVLFNPDSKGLSNPAEVEALREKVYASLEAYCKHKYPEQPGRFAKLLLRLPALRSIGLKCLEHLFFFKLIGDTPIDTFLMEMLEAPHQMT | – | – | binds | – |
| RXRαm5 (receptor, human, UniProt P19793 198-462, looked up) MGMKREAVQEERQRGKDRNENEVESTSSANEDMPVERILEAELAVEPKTETYVEANMGLNPSSPNDPVTNICQAADKQLFTLVEWAKRIPHFSELPLDDQVILLRAGWNELLIASFSHRSIAVKDGILLATGLHVHRNSAHSAGVGAIFDRVLTELVSKMRDMQMDKTELGCLRAIVLFNPDSKGLSNPAEVEALREKVYASLEAYCKHKYPEQPGRFAKLLLRLPALRSIGLKCLEHLFFFKLIGDTPIDTFLMEMLEAPHQMT | – | no binding | – | – |
| TRαm3 (receptor, UniProt P63059-2 1-167, looked up, In vitro translated deletion mutant) MEQKPSKVECGSDPEENSARSPDGKRKRKNGQCPLKSSMSGYIPSYLDKDEQCVVCGDKATGYHYRCITCEGCKGFFRRTIQKNLHPTYSCKYDSCCVIDKITRNQCQLCRFKKCIAVGMAMDLVLDDSKRVAKRKLIEQNRERRRKEEMIRSLQQRPEPTPEEWDL | no binding | – | – | – |
| RXRαm1 (receptor, human, UniProt P19793 1-402, looked up, range: lacks the carboxyterminal 60 amino acids; In vitro translated deletion mutant) MDTKHFLPLDFSTQVNSSLTSPTGRGSMAAPSLHPSLGPGIGSPGQLHSPISTLSSPINGMGPPFSVISSPMGPHSMSVPTTPTLGFSTGSPQLSSPMNPVSSSEDIKPPLGLNGVLKVPAHPSGNMASFTKHICAICGDRSSGKHYGVYSCEGCKGFFKRTVRKDLTYTCRDNKDCLIDKRQRNRCQYCRYQKCLAMGMKREAVQEERQRGKDRNENEVESTSSANEDMPVERILEAELAVEPKTETYVEANMGLNPSSPNDPVTNICQAADKQLFTLVEWAKRIPHFSELPLDDQVILLRAGWNELLIASFSHRSIAVKDGILLATGLHVHRNSAHSAGVGAIFDRVLTELVSKMRDMQMDKTELGCLRAIVLFNPDSKGLSNPAEVEALREKVYASLEA | – | no binding | no binding | binding result [4]: no binding; binding result [5]: no binding |
| TRαm2 (receptor, UniProt P63059-2 1-213, looked up, In vitro translated deletion mutant) MEQKPSKVECGSDPEENSARSPDGKRKRKNGQCPLKSSMSGYIPSYLDKDEQCVVCGDKATGYHYRCITCEGCKGFFRRTIQKNLHPTYSCKYDSCCVIDKITRNQCQLCRFKKCIAVGMAMDLVLDDSKRVAKRKLIEQNRERRRKEEMIRSLQQRPEPTPEEWDLIHVATEAHRSTNAQGSHWKQRRKFLPDDIGQSPIVSMPDGDKVDLE | no binding | – | – | – |
